In patent publication US20200262913A1 (ZymoGenetics, published 2020):
Numbering of substitutions follows the chain as printed. Names and notes keep the numbering of the source.

T1: recombinant human IL-31 (as used in the NHK STAT3 phosphorylation assay of Example 5) (human, UniProt Q6EBC2 24-164, limits assumed)
T1 sequence: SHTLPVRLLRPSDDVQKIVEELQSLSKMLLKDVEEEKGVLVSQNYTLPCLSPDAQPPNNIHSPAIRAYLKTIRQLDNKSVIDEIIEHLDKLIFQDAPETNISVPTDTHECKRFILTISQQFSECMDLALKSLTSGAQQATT

T2: recombinant human IL-31 (hIL-31, BHK produced, A1277F, zcytor17lig CEE) (human, UniProt Q6EBC2 24-164)
T2 construct: also called recombinant hIL-31
T2 sequence: T1 sequence

B1: humanized 292.12.3.1 construct clone 27 (12VH1-gly + HC(F29L, M69L, R94F) + LC(F71Y)) (antibody, human IgG4, V domains shown)
VH: QVQLVQSGAEVKKPGASVKVSCKASGYTLTRYWMQWVRQAPGQGLEWMGAIYPGDGDTRYSQKFQGRVTLTRDTSISTVYMELSSLRSEDTAVYYCAFPDGYYAAPYGMDYWGQGTLVTVSS
VL: DIQMTQSPSSLSASVGDRVTITCRASGNIHNYLAWYQQKPGKVPKLLIYNAKTLADGVPSRFSGSGSGTDYTLTISSLQPEDVATYYCQHFWSTPWTFGQGTKVEIKR
B2: humanized 292.12.3.1 construct clone 35 (12VH1-gly + HC(F29L, R94F)) (antibody, human IgG4, V domains shown)
VH: B1 VH with L70M
VL: B1 VL with Y71F
B3: humanized 292.12.3.1 construct clone 32 (12VH1-gly + HC(F29L, R71A, V78A, R94F) + LC(F71Y)) (antibody, human IgG4, V domains shown)
VH: B1 VH with L70M, R72A, V79A
VL: B1 VL
B4: humanized 292.12.3.1 construct clone 36 (12VH1(germ)-gly + HC(F29L, T73K, R94F) + LC(F71Y)) (antibody, human IgG4, V domains shown)
VH: B1 VH with L70M, T74K, I76T
VL: B1 VL
B5: humanized 292.12.3.1 construct clone 31 (12VH1-gly + HC(F29L, M69L, R71A, V78A, R94F) + LC(F71Y)) (antibody, human IgG4, V domains shown)
VH: B1 VH with R72A, V79A
VL: B1 VL
B6: humanized 292.12.3.1 construct clone 33 (12VH1(germ)-gly + fback) (antibody, human IgG4, V domains shown)
VH: B1 VH with R72A, T74K, I76T, V79A
VL: B1 VL with G66R, G68E, D70Q, T72S
B7: humanized 292.12.3.1 construct clone 30 (12VH1-gly + HC(F29L, V78A, R94F) + LC(F71Y)) (antibody, human IgG4, V domains shown)
VH: B1 VH with L70M, V79A
VL: B1 VL
B8: humanized 292.12.3.1 construct clone 29 (12VH1-gly + HC(F29L, T73K, R94F) + LC(F71Y)) (antibody, human IgG4, V domains shown)
VH: B1 VH with L70M, T74K
VL: B1 VL
B9: humanized 292.12.3.1 construct clone 28 (12VH1-gly + HC(F29L, R71A, R94F) + LC(F71Y)) (antibody, human IgG4, V domains shown)
VH: B1 VH with L70M, R72A
VL: B1 VL

biological target: T1, recombinant human IL-31 (as used in the …); test: cell-based or functional assay

| IC50, IL-31-induced STAT3 phosphorylation in NHK, Exp 8 [nM] | IC50, IL-31-induced STAT3 phosphorylation in NHK, Exp 9 [nM] | IC50, IL-31-induced STAT3 phosphorylation in NHK, Exp 10 [nM] | Binder |
| --- | --- | --- | --- |
| 3.42 | 9.59 |  | B1 |
|  |  | 12 | B2 |
| 11.5 | 6.43 |  | B3 |
|  |  | 8.95 | B4 |
| 11 | 7.82 |  | B5 |
| 4.08 | 5.68 | 13.6 | B6 |
| 14.8 | 8.71 |  | B7 |
| 4.49 | 5.37 |  | B8 |
| 10.5 | 5.95 |  | B9 |

biological target: recombinant human IL-31 (C108S), produced in E. coli by ZymoGenetics, MW 18 kDa (human), Q6EBC2; test: cell-based or functional assay

| Average Fold loss in potency relative to 292.12.3.1, BAF-3(hIL-31R) proliferation assay [fold] | Average Potency (IC50), inhibition of hIL-31-induced proliferation of BAF-3(hIL-31R) cells [nM] | Binder |
| --- | --- | --- |
| 18.7 | 29.1 | B1 |
| 75.1 | 62.1 | B2 |
| 14.7 | 18.9 | B3 |
|  | 14.1 | B4 |
| 25.1 | 32.4 | B5 |
| 2.3 | 3.1 | B6 |
| 37.1 | 57.8 | B7 |
| 8.3 | 12.9 | B8 |
| 17.1 | 26.4 | B9 |

biological target: T2, recombinant human IL-31 (hIL-31, BHK …); test: SPR (Biacore), against parent 292.12.3.1
Experimental: (§1) The purified monoclonal antibodies were immobilized in individual flow cells on a CM5 type sensor chip. Immobilizations were performed using a standard amine coupling procedure, aiming for an immobilization level of 500 Resonance Units (RU). The antibodies were diluted to 1-5 ug/ml in 10 mM NaAc pH 4.5.
(§2) HPS-EP pH 7.4 (10 mM HEPES, 150 mM NaCl, 3 mM EDTA and 0.005% Polysorbat P20) was used as running buffer, and diluents for the recombinant hIL-31 (hIL-31, BHK produced, A1277F, zcytor17lig CEE). The hIL-31 was tested in a 3-fold dilution series from 333.3 nM to 1.4 nM. Association (injection) was 4 min., followed by a 20 min. dissociation (wash) period. Flow rate was 50 ul/min. Experiments were performed at 25OC. Regeneration of the surface was accomplished by injection of 30 sec. pulse of 10 mM Glycin-HCl pH 1.8 or 1M formic acid, at a 30 ul/min flow rate. Detection in all flow cells simultaneously. Flow cell #1 contained no immobilized antibody, and was used for subtraction of background and bulk.
(§3) The kinetic parameters were calculated by global fitting of the data using a 1:1 langmuir binding model. Data was inspected for mass-transport limitations prior to calculation of the kinetic parameters. In some experiments the Rmax was fitted locally, and the RI constant at 0.

| Relative potency loss (KD) | Relative potency loss (kd) | Binder |
| --- | --- | --- |
| ~0.5 x to parent | ~1.3 x to parent | B1 |
| ~0.7 x to parent | ~1.5 x to parent | B2 |
| ~0.3 x to parent |  | B3 |
| ~0.5 x to parent | ~1.5 x to parent | B4 |
| ~0.4 x to parent |  | B5 |
| ~0.6 x to parent |  | B6 |
| ~0.5 x to parent | ~1.5 x to parent | B7 |
| ~0.5 x to parent | ~1.5 x to parent | B8 |
| ~0.25 x to parent |  | B9 |

biological target: T2, recombinant human IL-31 (hIL-31, BHK …); test: SPR (Biacore), mAb amine-coupled to CM5 chip, hIL-31 injected
Experimental: as §1, §2, §3

| Kd [nM] | koff [s⁻¹] | kon [M⁻¹ s⁻¹] | Binder |
| --- | --- | --- | --- |
| 0.8 | 7.9e-05 | 98000 | B1 |
| 1.6 | 0.0001 | 64000 | B2 |
| 0.64 | 5.9e-05 | 93000 | B3 |
| 1.6 | 0.000108 | 68000 | B4 |
| 0.77 | 7e-05 | 92000 | B5 |
| 1.3 | 6.8e-05 | 52000 | B6 |
| 1.1 | 9e-05 | 78000 | B7 |
| 0.99 | 8.98e-05 | 90000 | B8 |
| 0.46 | 5.6e-05 | 120000 | B9 |
